Assay results taken from US20250230207A1, “COMPOSITION” (Worg Pharmaceuticals (Zhejiang) Co., Ltd., priority 2017, published 2025).

Assays:
Type in all cases: in vivo, Lewis rat
[1] = tested on: experimental autoimmune uveitis (EAU) in Lewis rats; assay: Example 1: development of uveitis (EAU) after immunisation with IRBP, gpMBP and/or huMBP; conditions: for Maximum Score of EAU: TEFI retinal score, maximum possible 6; for clinical signs of anterior uveitis: visual score 0-3, compared to the gpMBP-administered group, data until Day 21
Method: This study aimed at studying the effect, in Lewis rats, of immunisations with guinea pig myelin basic protein (gpMBP), human myelin basic protein (huMBP) and/or interphotoreceptor retinoid-binding protein with regard to development of encephalomyelitis (EAE) and/or uveitis (EAU).
(§1) Adult female Lewis rats were randomly allocated to experimental groups and allowed to acclimatise for one week. On Day 0, animals were administered by subcutaneous injection with 200 microliters of an emulsion containing 20 micrograms of IRBP1177-1191 (Cambridge Bioscience, UK) and/or 100 micrograms of human (Fitzgerald Industries International, MA, US) or guinea pig Myelin Basic Protein (gpMBP) in incomplete Freund's adjuvant (Sigma, UK) supplemented with 5 mg/ml Mycobacterium Tuberculosis H37Ra ([…]) (Becton Dickenson, UK). From Day 0 until the end of the experiment, animals were weighed daily. From Day 0 until the end of the experiment, animals were scored daily for clinical signs of experimental autoimmune encephalomyelitis to include limpness, paresis and/or paralysis of the tail, hind limbs and/or front limbs. From Day 0 until the end of the experiment, animals were scored twice weekly for clinical signs of uveitis. On Day 21 (Groups 1, 2 and 3) or Day 28 (Groups 4 and 5), animals were culled and the following samples were dissected out and stored in tissue fixative for optional histopathology analysis: brain, spinal cord, right and left eyes.
From Day 0 until the end of the experiment, animals were visually scored twice per week for clinical signs of anterior uveitis using the following scoring system. The maximum possible score was 3. Data were graphed (Mean±SEM).
From Day 0 until the end of the experiment, animals were scored twice per week for clinical signs of intermediate and posterior uveitis. Retinal images were captured using TEFI in non-anaesthetised but restrained animals following pupil dilatation using Tropicamide 1% then Phenylephrine hydrochloride 2.5%. Retinal images were scored using the following system. The maximum possible score was 6. Data were graphed (Mean±SEM).
Animals with an average score for both eyes greater than 0.5 on at least two consecutive TEFI sessions (see FIG. 2) or a score greater than 1.0 on any occasion were considered to have developed clinical signs of posterior uveitis. Based on this criterion, the incidence of EAU was:
Due to the lack of pigmentation in the retina of Lewis rats, the scoring system below was used. This is due to the inability to identify areas of infiltration causing haziness and cuffing on a pale background. Inflammation of the optic disc could not be clearly identified and was not therefore scored, also, no structural damage was observed. Infiltration of retinal vessels could be identified by engorged appearance on a scale of 0-3, mild to severe. Retinal inflammation was identified by the appearance of small to large areas of redness caused by increase in vascularisation also on a scale of 0-3, giving a total possible score of 6.
Clinical signs of anterior uveitis were also observed during the experiment. Data collected until Day 21 were analysed by two-way ANOVA followed by Dunnett's post-test for multiple comparisons between experimental groups.

[2] = tested on: experimental autoimmune encephalomyelitis (EAE) in Lewis rats; assay: Example 1: development of experimental autoimmune encephalomyelitis (EAE) after immunisation; conditions: paralytic symptom scoring 0-6
Method: as §1
Guinea pig MBP may induce Experimental autoimmune encephalomyelitis (EAE) in Lewis rats, a model for multiple sclerosis (MS). In this experiment, severe EAE was developed in Lewis rats immunised with gpMBP alone (incidence 8/8 rats; mean max score 3.5) or in combination with IRBP peptide (incidence 8/8 rats; mean max score 3.9) using the scoring system for paralytic symptoms: 0) no abnormality, (0.5) partial tail limpness, (1) complete tail limpness, (2) one hind limb paresis, (2.5) two hind limbs paresis, (3) one hind limb paralysis, (4) two hind limb paralysis, (5) incontinence and (6) moribund.

[3] = Example 1: bodyweights and non-specific clinical observations; conditions: Day 11 to Day 21, compared to the IRBP-administered group
From the text: Adult female Lewis rats were randomly allocated to experimental groups and allowed to acclimatise for one week. […] From Day 0 until the end of the experiment, animals were weighed daily. From Day 0 until the end of the experiment, animals were scored daily for clinical signs of experimental autoimmune encephalomyelitis to include limpness, paresis and/or paralysis of the tail, hind limbs and/or front limbs. From Day 0 until the end of the experiment, animals were scored twice weekly for clinical signs of uveitis. On Day 21 (Groups 1, 2 and 3) or Day 28 (Groups 4 and 5), animals were culled and the following samples were dissected out and stored in tissue fixative for optional histopathology analysis: brain, spinal cord, right and left eyes.
From Day 0 until the end of the experiment, animals were checked daily for non-specific clinical signs to include abnormal posture (hunched), abnormal coat condition (piloerection) and abnormal activity levels (reduced or increased activity).
From Day 0 until the end of the experiment, animals were weighed daily.

[4] = Lewis rats immunised SC Day 0 in CFA

| Molecule | Onset (Day) of EAU [1, 4] [days] | Incidence of EAU (clinical signs of posterior uveitis) ([1]; Lewis rats immunised SC Day 0 in CFA, TEFI score criterion, affected/total in brackets) | Maximum Score of EAU [1] | clinical signs of anterior uveitis [1] | EAE incidence [2] | EAE mean max score [2] | bodyweight loss [3] | severity of the clinical signs of EAU compared to the other immunised groups ([1]; vs IRBP (p<0.001), IRBP and gpMBP (p<0.01), IRBP and huMBP (p<0.01), huMBP (p<0.05)) |
| --- | --- | --- | --- | --- | --- | --- | --- | --- |
| ADGSSWEGVGVVPDV [IRBP, reference compound] | 10.5 ± 0.5 | 100% (8/8) | 5.6 ± 0.3 | observed from Day 11 | 2/8 | 1.0 | no significant bodyweight loss |  |
| huMBP: human myelin basic protein, immunising antigen (protein, UniProt P02686 1-304, looked up) Myelin basic protein: MGNHAGKRELNAEKASTNSETNRGESEKKRNLGELSRTTSEDNEVFGEADANQNNGTSSQDTAVTDSKRTADPKNAWQDAHPADPGSRPHLIRLFSRDAPGREDNTFKDRPSESDELQTIQEDSAATSESLDVMASQKRPSQRHGSKYLATASTMDHARHGFLPRHRDTGILDSIGRFFGGDRGAPKRGSGKDSHHPARTAHYGSLPQKSHGRTQDENPVVHFFKNIVTPRTPPPSQGKGRGLSLSRFSWGAEGQRPGFGYGGRASDYKSAHKGFKGVDAQGTLSKIFKLGGRDSRSGSPMARR | 10.2 ± 0.7 |  | 4.1 ± 0.5 | observed on Day 14 (p<0.0001) and Day 18 (p<0.01) | 3/14 | 1.0 | no significant bodyweight loss |  |
| gpMBP: guinea pig myelin basic protein (SEQ ID NO: 6), immunising antigen (protein, listed as Cavia porcellus) ASQKRPSQRHGSKYLATASTMDHARHGFLPRHRDTGILDSIGRFFGSDRAAPKRGSGKDSHHAARTTHYGSLPQKSQRSQDENPVVHFFKNIVTPRTPPPSQGKGRGLSLSRFSWGAEGQKPGFGYGGRADYKSKGFKGAHDAQGTLSKIFKLGGRDSRSGSPMARR | 11.5 ± 0.5 |  | 1.1 ± 0.2 |  | 8/8 | 3.5 | significant bodyweight loss | significantly lower |
